Values of other authors as cited in PMC5818423.

Key:
[1] = molecular target: CD26 (UniProt P27487)
[2] = molecular target: Adenosine A1 receptor (UniProt P30542)
Sequence of Adenosine A1 receptor (P30542 whole entry): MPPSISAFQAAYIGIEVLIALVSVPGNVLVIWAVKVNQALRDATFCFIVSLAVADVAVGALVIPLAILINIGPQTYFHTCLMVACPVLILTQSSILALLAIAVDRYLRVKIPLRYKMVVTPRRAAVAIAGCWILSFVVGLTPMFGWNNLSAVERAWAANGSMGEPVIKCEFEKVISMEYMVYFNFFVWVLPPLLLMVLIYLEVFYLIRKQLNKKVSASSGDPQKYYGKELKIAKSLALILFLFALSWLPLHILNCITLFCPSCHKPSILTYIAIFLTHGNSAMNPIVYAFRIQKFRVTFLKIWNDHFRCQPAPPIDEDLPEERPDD

Sequence of Adenosine deaminase (P00813 2-363): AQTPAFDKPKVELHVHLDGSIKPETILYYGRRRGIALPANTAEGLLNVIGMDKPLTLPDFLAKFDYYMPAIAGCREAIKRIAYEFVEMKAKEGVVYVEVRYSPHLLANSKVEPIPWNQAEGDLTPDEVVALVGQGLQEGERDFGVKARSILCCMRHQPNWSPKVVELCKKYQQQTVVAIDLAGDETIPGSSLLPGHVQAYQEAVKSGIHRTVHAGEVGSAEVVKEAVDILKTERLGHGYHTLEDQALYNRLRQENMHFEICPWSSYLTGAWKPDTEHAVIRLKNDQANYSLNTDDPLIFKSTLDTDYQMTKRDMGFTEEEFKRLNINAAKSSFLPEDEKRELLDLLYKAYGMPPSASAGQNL
Sequence of CD26 (P27487 39-766): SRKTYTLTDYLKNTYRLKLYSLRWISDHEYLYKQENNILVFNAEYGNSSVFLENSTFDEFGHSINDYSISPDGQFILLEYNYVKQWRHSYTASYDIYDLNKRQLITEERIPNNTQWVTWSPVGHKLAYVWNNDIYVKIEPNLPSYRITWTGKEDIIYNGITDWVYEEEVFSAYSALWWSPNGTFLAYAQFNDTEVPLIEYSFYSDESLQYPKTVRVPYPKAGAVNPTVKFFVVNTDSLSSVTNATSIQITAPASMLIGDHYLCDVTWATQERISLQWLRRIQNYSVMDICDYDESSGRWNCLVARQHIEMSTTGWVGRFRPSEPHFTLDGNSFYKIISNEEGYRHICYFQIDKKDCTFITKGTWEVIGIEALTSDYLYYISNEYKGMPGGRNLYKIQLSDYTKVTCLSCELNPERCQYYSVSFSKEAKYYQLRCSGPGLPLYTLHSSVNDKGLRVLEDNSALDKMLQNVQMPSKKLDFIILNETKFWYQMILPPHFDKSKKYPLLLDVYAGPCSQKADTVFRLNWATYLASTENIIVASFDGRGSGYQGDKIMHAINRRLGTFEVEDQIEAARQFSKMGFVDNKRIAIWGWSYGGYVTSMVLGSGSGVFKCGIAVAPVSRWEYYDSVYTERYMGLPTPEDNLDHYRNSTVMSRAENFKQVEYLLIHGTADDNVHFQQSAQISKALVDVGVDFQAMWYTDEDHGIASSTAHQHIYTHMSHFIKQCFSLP

Kd [1]: 18 nM | Kd [2]: 230 nM
Substance: Adenosine deaminase (from UniProt P00813)
